Key:
[1] = target: T1, peptide 21 (FIGURE 3 d/e); experiment: peptide array on cellulose membrane, double-alanine substitution series, signal intensity (area under curve), duplicate spots
T1 peptide: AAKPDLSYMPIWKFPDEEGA

[2] = target: T2, peptide 27 (FIGURE 3 d/e); experiment: as above
T2 peptide: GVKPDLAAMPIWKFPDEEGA

[3] = target: T3, peptide 25 (FIGURE 3 d/e); experiment: as above
T3 peptide: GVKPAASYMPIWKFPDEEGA

[4] = target: T4, peptide 38 (FIGURE 3 d/e); experiment: as above
T4 peptide: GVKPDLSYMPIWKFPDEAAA

[5] = target: T5, peptide 34 (FIGURE 3 d/e); experiment: as above
T5 construct: marked FP under the bar
T5 peptide: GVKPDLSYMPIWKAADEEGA

[6] = target: T6, peptide 29 (FIGURE 3 d/e); experiment: as above
T6 construct: marked MP under the bar
T6 peptide: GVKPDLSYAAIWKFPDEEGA

[7] = target: T7, peptide 30 (FIGURE 3 d/e); experiment: as above
T7 construct: marked PI under the bar
T7 peptide: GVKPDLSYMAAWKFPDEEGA

[8] = target: T8, peptide 23 (FIGURE 3 d/e); experiment: as above
T8 peptide: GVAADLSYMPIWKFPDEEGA

[9] = target: T9, peptide 33 (FIGURE 3 d/e); experiment: as above
T9 construct: marked KF under the bar
T9 peptide: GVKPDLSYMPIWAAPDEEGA

[10] = target: T10, peptide 35 (FIGURE 3 d/e); experiment: as above
T10 construct: marked PD under the bar
T10 peptide: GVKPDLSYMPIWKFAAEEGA

[11] = target: T11, peptide 36 (FIGURE 3 d/e); experiment: as above
T11 construct: marked DE under the bar
T11 peptide: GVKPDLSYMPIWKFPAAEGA

[12] = target: T12, peptide 31 (FIGURE 3 d/e); experiment: as above
T12 construct: marked IW under the bar
T12 peptide: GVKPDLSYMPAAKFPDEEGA

[13] = target: T13, peptide 28 (FIGURE 3 d/e); experiment: as above
T13 peptide: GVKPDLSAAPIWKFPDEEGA

[14] = target: T14, peptide 26 (FIGURE 3 d/e); experiment: as above
T14 peptide: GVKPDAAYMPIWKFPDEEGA

[15] = target: T15, peptide 39 (FIGURE 3 d/e); experiment: as above
T15 peptide: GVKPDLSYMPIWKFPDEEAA

[16] = target: T16, peptide 22 (FIGURE 3 d/e); experiment: as above
T16 peptide: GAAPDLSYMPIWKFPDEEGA

[17] = target: T17, peptide 32 (FIGURE 3 d/e); experiment: as above
T17 construct: marked WK under the bar
T17 peptide: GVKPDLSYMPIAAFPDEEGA

[18] = target: T18, peptide 24 (FIGURE 3 d/e); experiment: as above
T18 peptide: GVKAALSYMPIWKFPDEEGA

[19] = target: T19, extracellular domain of p95HER2 peptide with a polyhistidine-tag in the C-terminus; experiment: SPR (Biacore T200, 25° C.), antibody immobilized on CM5 chip, peptide as analyte 0.6 to 2500 nM, 1:1 model
T19 construct: Used as analyte in SPR
Procedure: SPR was performed as described previously in Gomes & Andreu, Journal of Immunological Methods 259:217-230, 2002. […] The extracellular domain of p95HER2 peptide with a polyhistidine-tag in the C-terminus (SEQ ID NO: 19) was used as analyte with serial dilutions from 0.6 to 2500 nM. […] (SEQ ID NO: 19)
Kinetics of molecular interaction were processed by global curve fitting to the 1:1 bimolecular interaction model. Biacore T200 (GE Healthcare) was used to perform the experiment and all procedures were conducted at 25° C.

full-length HER2 = target: T20, full-length HER2 (Homo sapiens (Human), UniProt P04626 23-1255); experiment: flow cytometry on cell lines expressing full-length HER2, goat anti-rat-PE secondary
T20 construct: Endogenous HER2 on cell lines
Procedure: Cells were washed, pelleted down and resuspended in 100 μl FACS buffer (containing phosphate-buffered saline (PBS), pH 7, 2% FBS, and 2 mM EDTA). […] Cells were washed twice, resuspended in 100 μL FACS buffer containing secondary antibody goat anti-rat-PE (0.26 μg/ml) and Fixable Viability Dye eFluor™ 780 and incubated for 30 minutes in the dark at 4° C. Cells were washed, resuspended in 200 μL FACS buffer, and analyzed on a LSR II flow cytometer (BD Biosciences, Franklin Lakes, NJ, USA). Data were analyzed with FlowJo software (v10.7.1, FlowJo LLC).

B1: Oslo-2 antibody (monoclonal antibody against p95HER2) (antibody, V domains shown)
VH: EVQILETGGGLVKPGGSLRLSCATSGFNFNDYFMNWVRQAPGKGLEWIAQIRNKNYNYATYFAESLEGRFTISRDDSKSSVYLQVNSLRAEDTALYYCTELRYDYWGQGVMVTVSS
VL: DIVMTQSPFSLAVSEGEMVTINCKSSQSLLSSGNQKNNLAWYQQKPGQSPKLLIYYASTRQSGVPDRFIGSGSGTDFTLTISDVQAEDLADYYCLQHYSSPYTFGAGTKLELK
notes: Monoclonal antibody from a rat hybridoma (mClone 1), detected with goat anti-rat-PE; also called the antibody of interest; the antibody
[1]
  binding result: binds
[2]
  binding result: binds
[3]
  binding result: binds
[4]
  binding result: binds
[5]
  binding result: binds
[6]
  binding result: binds
[7]
  binding result: binds
[8]
  binding result: binds
[9]
  binding result: binds
[10]
  binding result: binds
[11]
  binding result: binds
[12]
  binding result: no binding
[13]
  binding result: binds
[14]
  binding result: binds
[15]
  binding result: binds
[16]
  binding result: binds
[17]
  binding result: no binding
[18]
  binding result: binds
[19]
  Kd: 2 nM
full-length HER2
  binding result: no binding (tested: 10 µg/ml (not on the sheet))

From patent publication US20240398949A1 (OSLO UNIVERSITETSSYKEHUS HF, published 2024)
